Assay results taken from the RNAGym collection of RNA variant scans (doi:10.1021/acssynbio.7b00057).

B1: Pistol ribozyme (parent)
chain: GGGUCGUUGUUCCAUAAUCGCGUGGAUAUGGCACGCAAGUUUCUACCGGGCACCGUAAAUGUCCGACUGGAGCCGUUCGGGCGGCUAUAAACAGACCUCAGGCCCGAAGCGUGGCGGCACCUGCCGCCGGUGGUAAAAAAGAUCGGAAGAGCACACGUCU

Variants of: B1
Test: aptazyme ON/OFF ratio, guanine; higher = stronger switching; co-transcriptional cleavage with and without guanine

In order of rising “aptazyme ON/OFF ratio” value:
1. U7C U10A U11G C12A C13G  0.975
2. U7C U10A U11C C13U  1.01
3. U7C U10A U11C C13G  1.01
4. U7C U10A U11C C13A  1.02
5. U7C U10A U11C C12U  1.03
6. U7C U8G U10C U11C C12U C13A  1.04
7. U7C U10A U11C  1.04
8. U7C U10A C13U  1.04
9. U7C U10A C13G  1.05
10. U7C U10A U11C C12U C13U  1.05
11. U7C U10A C13A  1.06
12. U7C U8G U11G C12U C13G  1.07
13. U7C U8G U11A C13G  1.07
14. U7C U8G U11A C13A  1.07
15. U7C U8G U11G C13G  1.07
16. U7C U8G U11A C12A C13G  1.07
17. U7C U10A U11C C12U C13G  1.07
18. U7C U10A C12A C13G  1.08
19. U7C U10A C12U  1.09
20. U7C U8G U10C U11G C12G C13A  1.09
21. U7C U8G U10C U11G C12G C13G  1.09
22. U7C U8G U11A C12A C13A  1.09
23. U7C U8G U10C U11G C13G  1.1
24. U7C U10A U11C C12A C13U  1.1
25. U7C U10A U11C C12A C13A  1.1
26. U7C U10C U11G C12G C13U  1.1
27. U7C U10G U11A C12U C13G  1.1
28. U7C U8G U10C U11C C12U C13U  1.1
29. U7C U8G U11G C12G  1.1
30. U7C U8G U10C U11G C12A C13G  1.1
31. U7C U8G U10G U11G C12A C13A  1.11
32. U7C U8G U11G C12U C13A  1.11
33. U7C U8G U10C U11G C12G C13U  1.11
34. U7C U10C U11G C12A C13A  1.11
35. U7C U8G U10C U11G C12A C13A  1.11
36. U7C U10A  1.12
37. U7C U10A U11C C12A C13G  1.12
38. U7C U10A U11G C12G C13U  1.12
39. U7C U10A U11C C12A  1.12
40. U7C U10G U11A C12A  1.13
41. U7C U8G U11G C13A  1.13
42. U7C U8G U11A C12A C13U  1.13
43. U7C U10C U11A C13A  1.14
44. U7C U8G U10C U11C C12A C13G  1.14
45. U7C U8G U11G C13U  1.14
46. U7C U8G U10C U11A C12A C13G  1.14
47. U7C U8G U10G U11A C12G  1.14
48. U7C U10G U11A C12U  1.15
49. U7C U10G U11A C12G  1.15
50. U7C U8G U10C U11C C12A C13U  1.15
51. U7C U8G U11C C12A C13G  1.15
52. U7C U8G U10G U11G C12G C13G  1.15
53. U7C U8G U11C C12G C13A  1.15
54. U7C U10A C12A C13A  1.16
55. U7C U8G U10C U11C C12A C13A  1.16
56. U7C U10A U11A C12U C13G  1.16
57. U7C U10G U11C C12G C13G  1.16
58. U7C U8G U11A C13U  1.16
59. U7C U10C U11G C12G C13G  1.16
60. U7C U10C U11G C12U C13A  1.16
61. U7C U10C U11G C12U C13U  1.16
62. U7C U10A U11G C12G C13G  1.16
63. U7C U10G U11C C12U  1.16
64. U7C U8G U10G U11C C12G C13A  1.16
65. U7C U8G U10G U11C C12U  1.16
66. U7C U10A U11A C12A  1.17
67. U7C U10A U11G C12A C13U  1.17
68. U7C U10A U11G C12A C13A  1.17
69. U7C U8G U11G C12U C13U  1.17
70. U7C U10A U11G C13G  1.17
71. U7C U8G U10G U11G C12G C13A  1.17
72. U7C U8G U11C C12G C13U  1.17
73. U7C U8G U11C C12G C13G  1.17
74. U7C U10C C12G C13G  1.18
75. U7C U8G U10G U11C C12G C13G  1.18
76. U7C U8G U10G U11G C12A C13G  1.19
77. U7C U10C U11G C12G C13A  1.19
78. U7C U10A U11A C13U  1.19
79. U7C U10C U11G C12A C13G  1.19
80. U7C U8G U10C U11A C12A C13A  1.19
81. U7C U10G U11A C12U C13A  1.19
82. U7C U8G U11G C12U  1.19
83. U7C U8G U11G  1.2
84. U7C U10A U11A C12U  1.2
85. U7C U10A U11A C13G  1.2
86. U7C U10C U11A C13G  1.21
87. U7C U10C C12G C13U  1.21
88. U7C U8G U10G U11C C12U C13G  1.21
89. U7C U8G U10G U11A C12A  1.21
90. U7C U8G U10G C12A  1.21
91. U7C U8G U10G U11G C13A  1.21
92. U7C U10A C12A  1.22
93. U7C U10G U11C C12G C13A  1.22
94. U7C U10G U11A C12U C13U  1.22
95. U7C U10C C12G C13A  1.23
96. U7C U8G U10C U11C C12U C13G  1.23
97. U7C U8G U10G C12U C13G  1.23
98. U7C U10C U11C C12U C13G  1.24
99. U7C U10A U11G C13A  1.24
100. U7C U8G U10G C12U  1.24
101. U7C U10A C12A C13U  1.25
102. U7C U10C U11C C12U C13A  1.25
103. U7C U8G U10G U11G C12U C13A  1.25
104. U7C U10A U11C C12G  1.25
105. U7C U8G U10G U11G C12A C13U  1.26
106. U7C U10C C12A  1.26
107. U7C U10A U11G C12G C13A  1.26
108. U7C U8G U10G U11C C12G C13U  1.26
109. U7C U8G U10G U11G C12U C13G  1.26
110. U7C U8G U10G U11G C12G C13U  1.26
111. U7C U10A U11A C12U C13U  1.27
112. U7C U8G U10G C12U C13A  1.27
113. U7C U10A U11A C12G  1.28
114. U7C U10A U11A C12U C13A  1.28
115. U7C U10C C12G  1.28
116. U7C U10G U11C C12G C13U  1.28
117. U7C U10C U11C C12G  1.28
118. U7C U10A U11A C13A  1.28
119. U7C U8G U11C C12A C13A  1.28
120. U7C U10A U11G C13U  1.28
121. U7C U8G U10G U11G C13G  1.28
122. U7C U8G U11C C12U  1.28
123. U7C U10A C12G  1.29
124. U7C U10C U11C C12A  1.29
125. U7C U8G U11G C12A  1.29
126. U7C U8G U10G C13G  1.29
127. U7C U10A U11A  1.29
128. U7C U8G U11C C12G  1.3
129. U7C U10C U11C C12U  1.31
130. U7C U8G U10C U11G C12A C13U  1.32
131. U7C U10C U11C C12U C13U  1.33
132. U7C U10C U11G C12A C13U  1.33
133. U7C U8G U10C U11A C12A C13U  1.33
134. U7C U8G U10G U11C C12U C13A  1.33
135. U7C U8G U11C C12A C13U  1.34
136. U7C U8G U10G U11C C12A  1.34
137. U7C U8G U10G C13U  1.35
138. U7C U8G U11C C12A  1.35
139. U7C U8G U10G C12G  1.36
140. U7C U8G U10G U11C C12U C13U  1.37
141. U7C U8G U10G U11A C12U  1.37
142. U7C U8G U10G C12U C13U  1.37
143. U7C U10C U11A C13U  1.38
144. U7C U10C U11A C12G  1.38
145. U7C U8G U10C U11G C13A  1.39
146. U7C U8G U10G U11G C13U  1.39
147. U7C U8G U10G C13A  1.4
148. U7C U8G U10G U11G C12U C13U  1.4
149. U7C U10C U11G C12U C13G  1.41
150. U7C U8G U10C U11C C12G  1.41
151. U7C U10C U11A C12U  1.42
152. U7C U10A U11G  1.46
153. U7C U8G U10C U11C C12A  1.48
154. U7C U10G U11C C12G  1.52
155. U7C U10C U11A C12A  1.53
156. U7C U8G U10C C13U  1.54
157. U7C U8G U10G U11C C12G  1.55
158. U7C U10G  1.65
159. U7C U8G U10C C13A  1.86
160. U7C U8G U11A  1.88
161. U7C U10C  1.92
162. U7C U10G U11C C12A  2.07
163. U7C U8G U10C U11G C13U  2.15
164. U7C U8G U10C C13G  2.71
165. U7C U8G U10C U11C C12U  2.76
166. U7C U8G U11C  3.13
167. U7C U10C C12U  3.58
